From article PMC7181328 (ACS Central Science, 2020) come the findings set out here.

Residue numbers refer to the chain shown, from its start.

First the molecules themselves.
B1: β7 ring of the rat 20S proteasome (complex, rat (Rattus norvegicus))
chain 1: RFSPYAFNGGTVLAIAGEDFSIVASDTRLSEGFSIHTRDSPKCYKLTDKTVIGCSGFHGDCLTLTKIIEARLKMYKHSNNKAMTTGAIAAMLSTILYSRRFFPYYVYNIIEGLDEEGKGAVYSFDPVGSYQRDSFKAGGSASAMLQPLLDNQVGFKNMQNVEHVPLTLDRAMRLVKDVFISAAERDVYTGDALRICIVTKEGIREETVPLRKD
chain 2: EYLIGIQGPDYVLVASDRVAASNIVQMKDDHDKMFKMSEKILLLCVGEAGDTVQFAEYIQKNVQLYKMRNGYELSPTAAANFTRRNLADCLRSRTPYHVNLLLAGYDEHEGPALYYMDYLAALAKAPFAAHGYGAFLTLSILDRYYTPTISRERAVELLRKCLEELQKRFILNLPTFSVRVIDKDGIHNLENITFTKRSS
chain 3: SVMSYNGGAVMAMKGKNCVAIAADRRFGIQAQMVTTDFQKIFPMGDRLYIGLAGLATDVQTVAQRLKFRLNLYELKEGRQIKPYTLMSMVANLLYEKRFGPYYTEPVIAGLDPKTFKPFICSLDLIGCPMVTDDFVVSGTCSEQMYGMCESLWEPNMDPEHLFETISQAMLNAVDRDAVSGMGVIVHIIEKDKITTRTLKARMD
chain 4: TQNPMVTGTSVLGVKFDCGVVIAADMLGSYGSLARFRNISRIMRVNDSTMLGASGDYADFQYLKQVLGQMVIDEELFGDGHSYSPRAIHSWLTRAMYSRRSKMNPLWNTKVIGGYAGGESFLGYVDMLGVAYEAPSLATGYGAYLAQPLLREVLEKQPVLSQTEARELVERCMRVLYYRDARSYNRFQVATVTEKGVEIEGPLSAQTNWDIAHMISGFE
chain 5: TTTLAFKFQHGVIVAADSRATAGPYIASQTVKKVIEINPYLLGTMAGGAADCSFWERLLARQCRIYELRNKERISVAAASKLLANMVYQYKGMGLSMGTMICGWDKRGPGLYYVDSEGNRISGTAFSVGSGSVYAFGVMDRGYSYDLQVEEAYDLARRAIYQATYRDAYSGGAVNLYHVREDGWIRVSSDNVADLHDKYTSSIP
chain 6: TTIMAVQFDGGVVLGADSRTTTGSYIANRVTDKLTPIHDHIFCCRSGSAADTQAVADAVTYQLGFHSIELNEPPLVHTAASLFKEMCYRYREDLMAGIIIAGWDPQEGGQVYSVPMGGMMVRQSFAIGGSGSSYIYGYVDATYREGMTKDECLQFTANALALAMERDGSSGGVIRLAAIQQSGVERQVLLGDQIPKVTISTLPPP
chain 7: TTIAGVVYKDGIVLGADTRATEGMVVADKNCSKIHFISPNIYCCGAGTAADTDMTTQLISSNLELHSLTTGRLPRVVTANRMLKQMLFRYQGYIGAALVLGGVDVTGPHLYSIYPHGSTDKLPYVTMGSGSLAAMAVFEDKFRPDMEEEEAKKLVSEAIAAGIFNDLGSGSNIDLCVISKSKLDFLRPYSVPNKKGTRFGRYRCEKGTTAVLTEKVTPLELEVLEEIVQTMDTS
modifications: N-terminal acetylation | N-terminal acetylation
B2: β7 ring of the yeast (Saccharomyces cerevisiae) 20S proteasome (complex)
chain 1: QFNPYGDNGGTILGIAGEDFAVLAGDTRNITDYSINSRYEPKVFDCGDNIVMSANGFAADGDALVKRFKNSVKWYHFDHNDKKLSINSAARNIQHLLYGKRFFPYYVHTIIAGLDEDGKGAVYSFDPVGSYEREQCRAGGAAASLIMPFLDNQVNFKNQYEPGTNGKVKKPLKYLSVEEVIKLVRDSFTSATERHIQVGDGLEILIVTKDGVRKEFYELKRD
chain 2: MDIILGIRVQDSVILASSKAVTRGISVLKDSDDKTRQLSPHTLMSFAGEAGDTVQFAEYIQANIQLYSIREDYELSPQAVSSFVRQELAKSIRSRRPYQVNVLIGGYDKKKNKPELYQIDYLGTKVELPYGAHGYSGFYTFSLLDHHYRPDMTTEEGLDLLKLCVQELEKRMPMDFKGVIVKIVDKDGIRQVDDFQAQ
chain 3: SDPSSINGGIVVAMTGKDCVAIACDLRLGSQSLGVSNKFEKIFHYGHVFLGITGLATDVTTLNEMFRYKTNLYKLKEERAIEPETFTQLVSSSLYERRFGPYFVGPVVAGINSKSGKPFIAGFDLIGCIDEAKDFIVSGTASDQLFGMCESLYEPNLEPEDLFETISQALLNAADRDALSGWGAVVYIIKKDEVVKRYLKMRQD
chain 4: TQQPIVTGTSVISMKYDNGVIIAADNLGSYGSLLRFNGVERLIPVGDNTVVGISGDISDMQHIERLLKDLVTENAYDNPLADAEEALEPSYIFEYLATVMYQRRSKMNPLWNAIIVAGVQSNGDQFLRYVNLLGVTYSSPTLATGFGAHMANPLLRKVVDRESDIPKTTVQVAEEAIVNAMRVLYYRDARSSRNFSLAIIDKNTGLTFKKNLQVENMKWDFAKDIKGYGTQKI
chain 5: TTTLAFRFQGGIIVAVDSRATAGNWVASQTVKKVIEINPFLLGTMAGGAADCQFWETWLGSQCRLHELREKERISVAAASKILSNLVYQYKGAGLSMGTMICGYTRKEGPTIYYVDSDGTRLKGDIFCVGSGQTFAYGVLDSNYKWDLSVEDALYLGKRSILAAAHRDAYSGGSVNLYHVTEDGWIYHGNHDVGELFWKVKEEEGSFNNVIG
chain 6: TSIMAVTFKDGVILGADSRTTTGAYIANRVTDKLTRVHDKIWCCRSGSAADTQAIADIVQYHLELYTSQYGTPSTETAASVFKELCYENKDNLTAGIIVAGYDDKNKGEVYTIPLGGSVHKLPYAIAGSGSTFIYGYCDKNFRENMSKEETVDFIKHSLSQAIKWDGSSGGVIRMVVLTAAGVERLIFYPDEYEQL
chain 7: TTIVGVKFNNGVVIAADTRSTQGPIVADKNCAKLHRISPKIWCAGAGTAADTEAVTQLIGSNIELHSLYTSREPRVVSALQMLKQHLFKYQGHIGAYLIVAGVDPTGSHLFSIHAHGSTDVGYYLSLGSGSLAAMAVLESHWKQDLTKEEAIKLASDAIQAGIWNDLGSGSNVDVCVMEIGKDAEYLRNYLTPNVREEKQKSYKFPRGTTAVLKESIVNICDIQEEQVDITA
modifications: N-terminal acetylation
B3: β-subunit of the archaeal (Thermoplasma acidophilum) 20S proteasome (natural protein, UniProt P28061 9-211, looked up)
chain: TTTVGITLKDAVIMATERRVTMENFIMHKNGKKLFQIDTYTGMTIAGLVGDAQVLVRYMKAELELYRLQRRVNMPIEAVATLLSNMLNQVKYMPYMVQLLVGGIDTAPHVFSIDAAGGSVEDIYASTGSGSPFVYGVLESQYSEKMTVDEGVDLVIRAISAAKQRDSASGGMIDVAVITRKDGYVQLPTDQIESRIRKLGLIL
B4: PSMA2 subunit of the human 20S proteasome (natural protein, human (HEK293 cells), UniProt P25787 2-234, looked up)
chain: AERGYSFSLTTFSPSGKLVQIEYALAAVAGGAPSVGIKAANGVVLATEKKQKSILYDERSVHKVEPITKHIGLVYSGMGPDYRVLVHRARKLAQQYYLVYQEPIPTAQLVQRVASVMQEYTQSGGVRPFGVSLLICGWNEGRPYLFQSDPSGAYFAWKATAMGKNYVNGKTFLEKRYNEDLELEDAIHTAILTLKESFEGQMTEDNIEVGICNEAGFRRLTPTEVKDYLAAIA
modifications: N-terminal acetylation
B5: PSMA2 subunit of the rat 20S proteasome (natural protein, rat (Rattus norvegicus), UniProt P17220 2-234, looked up)
chain: B4 chain with K226R
modifications: N-terminal acetylation
B6: α-subunit of the archaeal (Thermoplasma acidophilum) 20S proteasome (natural protein)
chain: MQQGQMAYDRAITVFSPDGRLFQVEYAREAVKKGSTALGMKFANGVLLISDKKVRSRLIEQNSIEKIQLIDDYVAAVTSGLVADARVLVDFARISAQQEKVTYGSLVNIENLVKRVADQMQQYTQYGGVRPYGVSLIFAGIDQIGPRLFDCDPAGTINEYKATAIGSGKDAVVSFLEREYKENLPEKEAVTLGIKALKSSLEEGEELKAPEIASITVGNKYRIYDQEEVKKFL

Data set [1] concerns the molecule itself. Nature of the data set: native MS; SID-IM-MS on a Synapt G2 with SID device: two most intense charge states isolated, surface-induced dissociation at 150 V, subcomplexes separated by ion mobility; charge reduced with TEAA (0.1/0.9 TEAA/ammonium acetate, v/v).
Data set [2] has as its target α7 ring of the yeast (Saccharomyces cerevisiae) 20S proteasome (yeast (Saccharomyces cerevisiae), UniProt P40302 1-234; P23639 2-250; P21242 1-288; P23638 2-258; P32379 1-260; P21243 …, N-terminal acetylation | N-terminal acetylation | N-terminal acetylation | N-terminal acetylation | N-terminal acetylation | N-terminal acetylation). Nature of the data set: native MS; intact 20S proteasomes, native IM-MS on a modified Synapt G1; 150 mM ammonium acetate, pH 7, ~3 uM. The following applies: both partners purified.

Data set [3] concerns the target B6. The data set is described as follows: native MS; SID-IM-MS on a Synapt G2 with SID device: two most intense charge states isolated, surface-induced dissociation at 150 V, subcomplexes separated by ion mobility; charge reduced with TEAA (0.1/0.9 TEAA/ammonium acetate, v/v). The following applies: both partners purified.
In data set [4] the target is PSMA6 subunit of the human 20S proteasome (human (HEK293 cells), UniProt P60900 2-246, N-terminal acetylation). The data set is described as above. The following applies: both partners purified.
The target of data set [5] is PSMA6 subunit of the rat 20S proteasome (rat (Rattus norvegicus), UniProt P60901 2-246, N-terminal acetylation). Described as above. The following applies: both partners purified.
PSMA6 subunit of the rat 20S proteasome, sequence (P60901 2-246): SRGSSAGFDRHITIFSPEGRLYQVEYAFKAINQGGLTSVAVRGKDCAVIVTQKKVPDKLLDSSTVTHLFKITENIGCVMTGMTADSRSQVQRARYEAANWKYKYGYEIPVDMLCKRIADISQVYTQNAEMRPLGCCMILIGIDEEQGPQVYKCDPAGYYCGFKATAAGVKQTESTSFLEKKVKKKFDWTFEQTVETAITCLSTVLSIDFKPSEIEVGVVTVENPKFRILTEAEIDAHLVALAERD

PSMA6 subunit of the human 20S proteasome, sequence (P60900 2-246): as the sequence (P60901 2-246) above

As for B1, the binding result in data set [1] is “binds”.
For the molecule B2, the binding result in data set [2] and in data set [1] was “binds” each time.
With B3, the binding result in data set [1] and in data set [3] was “binds” each time.
Take B4: the binding result in data set [4] is given as “binds”.
As to B5, the binding result in data set [5] is “binds”.
B6: the binding result in data set [1] is listed as “binds”.
